Assay results published in patent US20240350646A1, “METHODS AND COMPOSITIONS FOR DELIVERY TO AND ACROSS THE BLOOD BRAIN BARRIER” (NUtech Ventures, priority 2021, published 2024).
Where two headings read alike, the source gives them in different places.

Experiments:
human claudin-1 = target: T1, human claudin-1 (Homo sapiens, UniProt O95832); assay: Microscale thermophoresis (MST) binding
T1 construct: made in house
T1 sequence (O95832 1-211): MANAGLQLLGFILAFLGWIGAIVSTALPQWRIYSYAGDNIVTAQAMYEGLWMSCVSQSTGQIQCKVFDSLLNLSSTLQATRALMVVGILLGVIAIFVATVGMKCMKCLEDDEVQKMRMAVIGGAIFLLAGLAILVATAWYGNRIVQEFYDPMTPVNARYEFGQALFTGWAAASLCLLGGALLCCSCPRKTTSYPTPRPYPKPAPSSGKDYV
Method: Human claudin-1 was expressed and purified as reported previously (Vecchio & Stroud, 2019, PNAS USA, 116:17817-24). MST measurements were performed using a Monolith instrument (NanoTemper Technologies). For experiments with human claudin-1, the assay buffer contained 10 mM Tris HCl, pH 8.0, 100 mM NaCl, 4% glycerol, and 0.04% n-Dodecyl-β-D-Maltopyranoside (β-DDM). NPs and peptides were labeled with AF647 prior to MST analysis as described above. For the binding experiments, the concentration of human claudin-1 was varied from 2.2-73,500 nM and the AF647-labeled C1C2-NP was fixed at 70 nM, while the AF647 labeled NPs and AF647 labeled C1C2 peptide were fixed at 1 and 0.3 μM, respectively. Binding of the AF647 labeled C1C2-NP to human claudin-3, -4, and -9 were tested using 0.4-14000 nM, 0.8-28000 nM, and 0.6-20000 nM, respectively; with the AF647 labeled C1C2-NP fixed at 70 nM. This assay buffer was similar, except β-DDM was replaced with 0.1% n-Undecyl-β-D-Maltopyranoside (beta-UDM). In order to check non-specific binding of β-DDM micelles to the AF647 labeled C1C2-NP, the concentration of beta-DDM was varied from 0.03-900 μM and the concentration of the AF647-labeled C1C2-NP was fixed at 1 μM. A similar experiment was performed wherein the concentration of beta-UDM was varied from 0.3-10,000 μM and the concentration of AF647-labeled control NP was fixed at 1 μM. The non-specific binding of human claudins 4 and 9 to the NP was examined by varying the concentrations of human claudins 4 and 9 from 0.7-20,100 nM and 0.8-31,100 nM, respectively. The human claudin sub-dilutions were mixed with the NPs or peptides and loaded in standard monolith NT.115 capillary tubes for measurement. All experiments were conducted at 23° C. using the nano-red channel of the Monolith instrument and the data were analyzed by using either Monolith analysis software or Graph Pad Prism, version 9 (Graph Pad Software, San Diego, California).

[1] = middle aged humans of around 40 years of age; cited from earlier work

Row | Molecule | Binding to human claudin-1 (in words) (human claudin-1) | Binding to human claudin-1 (in words) (human claudin-1; listed as C1C2 peptides) | K^trans, hippocampus [1] [min⁻¹]
1 | C1C2 peptide: Peptide SSVSQSTGQIQSKVDSLLNLNSTQATR (SEQ ID NO: 6) purchased from Genscript; binds first extracellular loop of claudin-1 (Ac-SSVSQSTGQIQSKVDSLLNLNSTQATR-NH2) | little binding | no binding | 
2 | CNC[C@H](O)[C@@H](O)[C@H](O)[C@H](O)CO.CNC[C@H](O)[C@@H](O)[C@H](O)[C@H](O)CO.O=C([O-])CN(CCN(CC(=O)[O-])CC(=O)O)CCN(CC(=O)O)C(COCc1ccccc1)C(=O)[O-].[Gd+3] (stereo not drawn) [MultiHance] |  |  | ~0.001
